This experiment deals with T1, Cap-Gly-CC1a-p150Glued-V5 (human, UniProt Q14203-1 1-358).
T1 construct: ATUM ordered gene ID #391071; also called Cap-Gly-CC1-p150Glued-V5; p150Glued-V5-tagged fragment; source: generated and purchased from ATUM Bio, purified (streptavidin-column based methods)
In words: pull-down; purified proteins mixed 1:1, with or without FLAG-EB1 WT or ΔY C-term, 1 h at 4°C in 20 mM Tris-HCl pH 7.4, 350 mM NaCl, 1 mM 2-mercaptoethanol; p150Glued-V5 fragment captured on anti-V5 antibody-coated beads, 2 h at 4°C; Western blot. The note with it: both partners purified.

T1 sequence (Q14203 1-358): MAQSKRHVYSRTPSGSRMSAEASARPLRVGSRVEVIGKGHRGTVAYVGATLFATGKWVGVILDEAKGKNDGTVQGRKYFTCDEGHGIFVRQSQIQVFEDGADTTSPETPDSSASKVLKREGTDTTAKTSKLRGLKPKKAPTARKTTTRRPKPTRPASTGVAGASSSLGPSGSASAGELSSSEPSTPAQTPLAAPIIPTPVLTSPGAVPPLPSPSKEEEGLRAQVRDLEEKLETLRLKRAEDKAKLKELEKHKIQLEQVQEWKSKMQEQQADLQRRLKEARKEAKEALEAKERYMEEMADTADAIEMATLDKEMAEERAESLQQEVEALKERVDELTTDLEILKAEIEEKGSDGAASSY

B1: FLAG-EB1 WT C-term (domain or fragment, human, UniProt Q15691 191-268, looked up)
chain: DEAAELMQQVNVLKLTVEDLEKERDFYFGKLRNIELICQENEGENDPVLQRIVDILYATDEGFVIPDEGGPQEEQEEY
notes: ATUM ordered gene ID #394359; also called FLAG-EB1 C-terminal; FLAG-tagged EB1 WT; source: generated and purchased from ATUM Bio, purified (streptavidin-column based methods)
As for B1, the binding result is listed as “binds”.

(Values after publication PMC7737607 (The EMBO Journal, 2020).)
